The text below walks through data of the RNAGym collection of RNA variant scans (doi:10.1073/pnas.2313332121).

Variants at the floor of the assay were thinned out.

B1: TPR 5TU (parent)
chain: GGAUCUUCUCGAUCUAACAAAAAAGACAAAUCUGCCACAAAGCUUGAGAGCAUCUUCGGAUGCAGAGGCGGCAGCCUUCGGUGGCGCGAUAGCGCCAACGUUCUCAACUAUGACACGCAAAACGCGUGCUCCGUUGAAUGGAGUUUAUCAUG

Variants of B1 are the subject of the data set. Kind of data set: polymerase ribozyme fitness, log enrichment relative to wild type (log ratio); higher = more active; in vitro selection for triplet polymerase activity. The gist of the method: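 Each subunit of a heterodimeric triplet polymerase ribozyme was mutagenized into a library by PCR, transcribed, and subjected to one round of in vitro selection, run in triplicate. Libraries were annealed with a biotinylated primer, the partner subunit and triplets, incubated frozen at −7 °C, and extended constructs were gel-excised, captured on streptavidin beads and recovered by RT-PCR. Input and output libraries were sequenced on Illumina, keeping genotypes with ≥10 input reads and ≥1 read per output. Fitness is log base 2 of genotype enrichment divided by wild-type enrichment, from inverse-variance-weighted replicate averages.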
In the case of GGAUCUUCUCGAUCUAACAAAAAAGACAAAUCUGCCACAAAGCUUGAGAGCAUCUACGGAUGCAGAGGCGGCAGCCUUCGGUUGCGCGAUAGCGCCAACGUUCUCAACUAUGACACGCAAAACGCGUGCUCCGUUGAAUGGAGUUUAUCAUG [U56A G83U], the “polymerase ribozyme fitness (log ratio)” value is -0.976. The figure for GGAUCUUCUCGAUCUAACAAAAAAGACAAAUCUGCCACACAGCUUGAGAGCAUCUUCGGUUGCAGAGGCAGCAGCCUUCGGUGGCGCGAUAGCGCCAACGUUAUCAGCUAUGACACGCAAAACGCGUGCUCCGUUGAAUGGAGUUUAUCAUG [A40C A60U G70A C103A A107G] is at most -4.2. For GGAUCUUCUCGAUCUAACAAAAAAGACAAAUCUGCCACAAAGCUUGAGAGCAUCUUCGGAUGCAGAGGCGGCAGCCUUCGGUGGCGCGAUAGCGUCAACGUUCUCAACUAUGACAGGCAAAACGCGUGCUCCUUUGAAUGGAGUUUAUCAUG [C95U C116G G133U], the “polymerase ribozyme fitness (log ratio)” value was at most -4.2. The figure for GGAUCUUCUCGAUCUAACCAAAAAGACAAAUCUGCCACAAAGCUUGAGAGCAUCUUCGGAUGCAGAGGCGGCAGCCUUCGGUGGCACGAUAGCGCCAACGUUCUCAACUAUGACACGCAAAACGCGUGCUCCGUUGAAUGGAGUUUAUCAUG [A19C G86A] is -0.455; for GGAUCUUCUCGAUCUAACAAAAAAGACAAAUCUGCCACAAAGCUUGAGAGCAUCUUCGGAUGCAGAGGCGGCAGCCUUCGGUGGCGCGAUAGUGCCAAAGUUCUCAACUAUGACACGCAAAACGCGUCCUCCGUUGAAUGGAGUUUAUCAUG [C93U C99A G128C] it is at most -4.2. Next, GGAUCUUCUCGAUCUAACAAAAAAGACAAAUCUGCCACAAAGCUUGAGAUCAUCUUAGGAUGCAGAGGCGGUAGCCUUCGGUGACGCGAUAGCGCCAACGUUCUCAACUAUGACACGCAAAACGCGUGCUCCGUUGAAUGGAGUUUAUCAUG [G50U C57A C72U G84A]: -0.724; GGAUCUUCUCGAUCUAACAAAAAAGACACAUCUGCCGCAAAGCUUGAGAGCAUCUUCGGAUGCACAGGCGGCAGGCAUCGGUGGCGCGAUAGCGCCGACGUUCUCAACUAUGACACGUAAAAUGCGUGCUCCGUUGAAUGGAGUUUAUCAUG [A29C A37G G65C C75G U77A A97G C118U C123U]: at most -4.2; GGAUCUUCUCGAUCUAACAAAAAAGACAAAUCUGCCACAAAGCUUGAGAGCAUAUUCGGAUGCAGAGGCGGCAGCCUUCGGUGGCGCGAUAGCGCUAACGUUCUCAACUAUGACACGCAAAACGCGUGCUCCGUUGAAUGGAGUUUAUCAUG [C54A C96U]: -1.43. Next, GGAUCUUCUCGGCCUAACAAAAAAGACAAAUCUGCCAUAAAGCUUGAGAGCAUCUUCAGAUGCAGAGGCGGCUGCCUUCGGUGGCGCGAUAGCGCCAACGUUCUCAACUAUGACACGCAAAACGCGUGCUCCGUUGAAUGGAGUUUAUCAUG [A12G U13C C38U G58A A73U]: -1.35; GGAUCUUCUCGAUCUGACAAAUAAGACAAAUCUGCCACAAAGCUUGAGAGCAUCUUCGGAUGCAGAGGCGGCAGCCUUCGGUGGGGCGAUAAGGCCAACGUUCUCAAGUAUGUCACCCAAAACGCGUGCUCCGUUGAAUGGAGUUUAUCAUG [A16G A22U C85G G92A C93G C108G A113U G117C]: at most -4.2. As for GGAUCUUCUCCAUCUAACAAAAAAUACAAAUCUGCCACAAAGCUUGAGAGCCUUUUCGGAUGCAGAGGCGGCAGCCUUCGGUGGCGCGAUAGCGUCAACGUUCUCAGCUAUGACACGCAAAACGCGUGCUCCGUUGAAUGGAGAUUAUCAUG [G11C G25U A52C C54U C95U A107G U144A], the “polymerase ribozyme fitness (log ratio)” value was at most -4.2. The figure for GGAUCUUCUCGAUCUAACAAAAAAGACAAAUCUGCCACAAAGCUUAAGAGCCUCUUCGGAGGCAGAGGCGGCAGCCUUCGGUGGCGCGAUAGCGCCAACGUUCUCAACUAUGACACGCAAAACGCGUGCUCCGUUGAAUGGAGUUUAUCAUG [G46A A52C U61G] is -0.687. The figure for GGAUCUUCUCGAUCUAACAAAAAAGACAAAUCUGCCACAAAGCUUGAGAGCAUCUACUGAUGCAGAGGCGGCAGCCUUCGGUGGCGCGAUAGCGCCAACGUUCUCAACUAUGACACGCGAAACGCGUGCUACGUUGAAUGGAGUUUAUCAUG [U56A G58U A119G C131A] is -2.04; for GGAUCUUCUCGAUCUAACAAAAAAGACAAAUCUGCCACAAAGCUUGAGAGCAUCUUCGGAUGCAGAGGCGGCUGCCUUCGGUGACGCGAUAGCGCCAACGUUCUCAAGUAUGACACGCAAAACGCGUGCUCCGUUGAAUGAAGUCUAUCAUG [A73U G84A C108G G141A U145C] it is at most -4.2; for GGAUCUUCUCGAUCUAACAAAAAAGACAAAUCUGCCACAAAGCUUGAGAGCAUCUUCGGAUGCAGAGGCGGCAGCCUUCGGUGGGGCGAUAGCGCCAACGUUCUCAACUAUGACACGCAAAACGCGUGCGCCGUUGAAUGGAGUUUAUCAUG [C85G U130G] it is at most -4.2. Next, GGAUCUUCUCGAUCUAACAAAAAAGACAAAUCUGCCACAAAGCUUGAGAGCAUAUUUGGAUGCAGAGGCGGCAGCCUUCGGUGGCGCGAUAGCGUCAACGUUCUCAACUAUGACACGCAAAACGCGUGCUCCGUUGAAUGGAGUUUAUCAUG [C54A C57U C95U]: -1.9; GGAUCUUCUCUAUCUAACAAAAAAGACAAAUCUGCCAUAAAGCUUGAGAGCAUCUUCCGAUGCAGAGGCGGCAGCCUUCGGUGGCGCGAUAGCGCUAGCGUUCUCAACUAUGACACGCAAAACGCGUGCUCCGUUGAAUGGAGUUUAUCAUG [G11U C38U G58C C96U A98G]: -1.45; GGAUCUUCUCGAUCUAACAAAAAAGACAAAUCUGCCACAAAGCUUGAGAGCAUCUUCGGAUGCAGAGGCGGCAGCCUUCGGUUGCGCGAUAGCGCCAACGUUCUCAACUAUGACACGCAAAACGCGUGCUCCGUUGAAUUGAGUUUAUCAUU [G83U G140U G152U]: -3.93. Consider GGAUCUUCUCGAUCUAACAAAAAAGACAAAUCUGCCACAAAGCUUGAGAGCAUCUUCGGAUGCAGAGGCGGCAGCCUUCGGUGGCGCGAUACCGACAACGUUCUCAACUAUGACACGCAAAACGCGUGCUCCGUUGAAUGGAGUUUAUCAUG [G92C C95A], for which the “polymerase ribozyme fitness (log ratio)” value is -2.12.
